Measurements as given in patent EP4631972A1, “SITE-SPECIFIC COUPLED PEGYLATED INTERLEUKIN-2 MUTANT WITH RECEPTOR AFFINITY PREFERENCE AND USE THEREOF” (priority 2022, dated 2024).

Tests used:
[1] = target: T1, IL-2βγ dual receptor (Homo sapiens, UniProt P14784+P31785); experiment: STAT5 reporter gene assay, activation of IL-2βγ dual receptor in 293EC18/βγ/JAK3/STAT5 cells; type: cell-based
T1 construct: Uniprot P14784 1Met-551Val was constructed into plasmid pcDNA3.1(+); Uniprot P31785 1Met-551Thr was constructed into plasmid pcDNA3.1/zeo; expressed in transfected cells; host or cells: 293EC18 cells, transient co-transfection with pCMV/JAK3 and PGL4.52/STAT5RE
T1 sequence (P14784 27-551): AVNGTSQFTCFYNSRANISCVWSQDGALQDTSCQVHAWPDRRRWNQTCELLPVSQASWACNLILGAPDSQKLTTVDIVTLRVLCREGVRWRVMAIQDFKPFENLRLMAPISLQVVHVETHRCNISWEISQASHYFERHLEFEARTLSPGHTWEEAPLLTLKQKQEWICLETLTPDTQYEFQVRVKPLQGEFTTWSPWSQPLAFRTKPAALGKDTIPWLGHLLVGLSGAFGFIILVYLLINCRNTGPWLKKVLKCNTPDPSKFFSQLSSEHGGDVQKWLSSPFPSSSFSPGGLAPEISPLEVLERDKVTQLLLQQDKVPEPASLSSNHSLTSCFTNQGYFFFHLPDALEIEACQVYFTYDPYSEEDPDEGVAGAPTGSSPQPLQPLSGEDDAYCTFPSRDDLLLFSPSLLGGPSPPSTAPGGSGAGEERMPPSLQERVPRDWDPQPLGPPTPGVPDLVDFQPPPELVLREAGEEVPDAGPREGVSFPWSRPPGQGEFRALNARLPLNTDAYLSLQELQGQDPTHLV
T1 sequence (P31785 23-369): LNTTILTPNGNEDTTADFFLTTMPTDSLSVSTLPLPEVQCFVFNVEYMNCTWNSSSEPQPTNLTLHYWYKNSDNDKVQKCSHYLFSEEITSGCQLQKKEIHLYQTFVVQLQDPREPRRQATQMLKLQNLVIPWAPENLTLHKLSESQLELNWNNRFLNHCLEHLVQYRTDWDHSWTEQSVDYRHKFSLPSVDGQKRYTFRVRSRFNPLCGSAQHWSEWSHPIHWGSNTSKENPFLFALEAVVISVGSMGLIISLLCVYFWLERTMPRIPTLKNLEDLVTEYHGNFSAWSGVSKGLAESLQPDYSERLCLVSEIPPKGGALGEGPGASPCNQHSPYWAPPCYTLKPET
Description: (§1) Since the binding of IL-2 to the β and γ subunits of its receptor induces STAT5 phosphorylation, which subsequently leads to dimerization and translocation into the nucleus to promote target gene transcription, this example evaluates the ability of the mutant IL-2 polypeptides to induce signaling through the IL-2 receptor by measuring STAT5 phosphorylation.
Adherent 293EC18 cells were cultured to about 90% confluence using conventional methods. After trypsin digestion, the cells were resuspended in cell culture medium to 4×10^5 cells/ml and 50 µl/well were added to two 96-well cell culture plates. After incubation at 37°C for 48 h, the supernatant was aspirated and fresh culture medium was added. According to the manufacturer's method, four plasmids, pcDNA3.1(+)/CD122 (constructed by Nanjing Novoacine Biotechnology Co., Ltd, Uniprot P14784 1Met-551Val was constructed into plasmid pcDNA3.1(+)), pcDNA3.1/puro/CD132 (constructed by Nanjing Novoacine Biotechnology Co., Ltd, Uniprot P31785 1Met-551Thr was constructed into plasmid pcDNA3.1/zeo), pCMV/JAK3 (Sino Biological), and PGL4.52/STAT5RE (Promega) were transiently transfected into 293EC18 cells using a cationic transfection reagent (ExFect Transfection Reagent, Vazyme). The obtained cells were named 293EC18/βγ/JAK3/STAT5 cells. Alternatively, five plasmids, pcDNA3.1/zeo/CD25 (constructed by Nanjing Novoacine Biotechnology Co., Ltd, Uniprot P01589 1Met-551Ile constructed into plasmid pcDNA3.1/zeo), pcDNA3.1(+)/CD122 (constructed by Nanjing Novoacine Biotechnology Co., Ltd, Uniprot P14784 1Met-551Val constructed into plasmid pcDNA3.1(+)), pcDNA3.1/puro/CD132 (constructed by Nanjing Novoacine Biotechnology Co., Ltd, UniprotP31785 1Met-551Thr constructed into plasmid pcDNA3.1/zeo), pCMV/JAK3 (Sino Biological), and PGL4.52/STAT5RE (Promega) were transiently transferred into 293EC18 cells, and the obtained cells were named 293EC18/αβγ/JAK3/STAT5 cells. The transfected cells were incubated at 37°C and 5% CO2 for another 6 h.
Each IL2 mutant was diluted 4-fold in a gradient manner using PBS buffer, with a total of 11 dilutions and a starting concentration of 65.2 nM. In the above cell culture plates, 50 µl/well of each of the serially diluted IL2 mutant samples was added in duplicate. Then, the cell culture plate was placed in an incubator at 37°C and 5% CO2 for overnight culture. The cell culture plates were kept at room temperature for 20 ± 5 minutes to equilibrate the plates to room temperature. Bio-Lite Luciferase Assay System reagents that have been mixed and equilibrated to room temperature were added to the cell culture plates to be tested at 100 µl/well, placed on a microplate shaker at 450 rpm to mix for 2 minutes, then allowed to stand at room temperature for 3 minutes, and the chemiluminescence value was detected with an enzyme plate reader.
(§2) The logarithm of the final concentration of each IL-2 mutant sample was used as the X-axis, and the chemiluminescence detection results were used as the Y-axis for plotting. Data were analyzed using the four-parameter logistic regression model in GraphPad Prism 9. Table 2 EC50 values for the activation of the IL-2αβγ triple receptor by PEG-IL-2 mutants as determined by a reporter gene assay.
(§3) According to the method of Example 3, each polyethylene glycol-modified mutant obtained in this example was assessed for the binding preference to the IL2 receptors by a reporter assay. Table 4 EC50 values for the activation of the IL-2αβγ triple receptor by PEG-IL-2 mutants as determined by a reporter gene assay.
Referring to Example 3, the phosphorylation of STAT5 was used to evaluate the ability of the PEG-modified IL-2 mutants having a non-natural amino acid mutation prepared in Example 14 to induce signal transduction via the IL-2 receptor. […]

[2] = target: T2, IL-2αβγ triple receptor (Homo sapiens, UniProt P01589+P14784+P31785); experiment: STAT5 reporter gene assay, activation of IL-2αβγ triple receptor in 293EC18/αβγ/JAK3/STAT5 cells; type: cell-based; conditions: Example 3, Table 2 and Figure 3
T2 construct: Uniprot P01589 1Met-551Ile constructed into plasmid pcDNA3.1/zeo; Uniprot P14784 1Met-551Val constructed into plasmid pcDNA3.1(+); Uniprot P31785 1Met-551Thr was constructed into plasmid pcDNA3.1/zeo; expressed in transfected cells; host or cells: 293EC18 cells, transient co-transfection with pCMV/JAK3 and PGL4.52/STAT5RE
T2 sequence (P01589 22-272): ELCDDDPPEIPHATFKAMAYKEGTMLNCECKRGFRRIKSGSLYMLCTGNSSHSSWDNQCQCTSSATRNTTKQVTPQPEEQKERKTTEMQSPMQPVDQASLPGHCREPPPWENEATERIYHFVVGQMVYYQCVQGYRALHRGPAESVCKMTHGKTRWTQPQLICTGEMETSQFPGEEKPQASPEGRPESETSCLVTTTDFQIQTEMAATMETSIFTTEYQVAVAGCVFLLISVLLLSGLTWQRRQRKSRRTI
T2 sequence (P14784 27-551): T1 sequence (P14784 27-551)
T2 sequence (P31785 23-369): T1 sequence (P31785 23-369)
Description: as §1
Adherent 293EC18 cells were cultured to about 90% confluence using conventional methods. After trypsin digestion, the cells were resuspended in cell culture medium to 4×10^5 cells/ml and 50 µl/well were added to two 96-well cell culture plates. After incubation at 37°C for 48 h, the supernatant was aspirated and fresh culture medium was added. […]
Each IL2 mutant was diluted 4-fold in a gradient manner using PBS buffer, with a total of 11 dilutions and a starting concentration of 65.2 nM. […] Bio-Lite Luciferase Assay System reagents that have been mixed and equilibrated to room temperature were added to the cell culture plates to be tested at 100 µl/well, placed on a microplate shaker at 450 rpm to mix for 2 minutes, then allowed to stand at room temperature for 3 minutes, and the chemiluminescence value was detected with an enzyme plate reader.
as §2
as §3, with “gene assay. […]” for “gene assay.”

B1: 80k-1PEG-IL2-N88R-N33C: IL-2 mutant N88R, N33C with one 80k PEG conjugated to cysteine 33 (conjugate)
chain: APTSSSTKKTQLQLEHLLLDLQMILNGINNYKC(PEG 80 kDa)PKLTRMLTFKFYMPKKATELKHLQCLEEELKPLEEVLNLAQSKNFHLRPRDLISRINVIVLELKGSETTFMCEYADETATIVEFLNRWITFSQSIISTLT
activation effect on the IL-2Rβγ dual receptor compared with control IL-2 N88R ([1]; Figure 1, concentration of 65.2 nM): lower activation effects | activation effect on / affinity to IL-2Rβγ dual receptor compared with control IL-2 N88R ([1]; Figure 2, all concentrations): further reduced the affinity to IL-2Rβγ | activation of the IL-2Rαβγ triple receptor compared with the control IL2-N88R [2]: even stronger activation
